# Entries after “also recorded” stand apart in the source; their conditions may differ.
# Legend:
# [1] = test system: nfsb-wt and nfsb-n71s/f124w-transformed E. coli BL21(DE3); assay: Disk assay for FZ sensitivity (disk diffusion, zones of inhibition); format: cell-based; settings: E. coli expressing wild-type enzyme or N71S/F124W mutant; dosage up to 400 μg; 24 hrs
# Experimental: LB plates were uniformly streaked with 0.1 ml of bacterial cell suspensions having an OD600 value of 0.8. Sterile 7 mm filter paper disks saturated with 7 μl of each chemical, including FZ alone, metronidazole (MTZ) alone, and a combination of FZ and MTZ at a ratio of 1/1 by weight, in the amounts indicated in FIG. 4 were placed on the plates. The cells were incubated for 24 hrs before the zones of inhibition were measured.^22
# [2] = 7AFZ production from FZ by purified NfsB proteins (HPLC); format: biochemical; settings: for 7AFZ formation: FZ 64 μM, purified NfsB protein 10 μg, NADPH 2 mM, 2 h at 37° C., mean±S.D. from three incubations; for production of 7AFZ compared to the wild-type enzyme (in words): anaerobic conditions, FIG. 2B
# Experimental: Production of 7AFZ was performed under both aerobic or anaerobic conditions. For anaerobic incubation, nitrogen was inlet into an anaerobic incubator (Biotrace). The reaction mixture consisted of FZ (64 μM), purified NfsB proteins (10 μg), MgCl2 (3.3 mM), and NADPH (2 mM) in 100 mM potassium phosphate buffer (pH 7.4). After incubation for 2 h at 37° C., the reaction was terminated by the addition of a methanol solution (200 μl) containing bromazepam (1 μg/mL), which acted as an internal control. The reaction products were extracted via sonication and analyzed by HPLC at 240 nm with a procedure described previously.^13 The detection limit for 7AFZ or FZ was less than 3-5 ng with 83-86% of recovery.
# [3] = Kinetic study monitoring the rate of FZ disappearance (standard nitroreductase assay of E. coli NfsB); format: biochemical; settings: aerobic; for Km / Vmax: FZ 4-256 μM, linear plot; for Km / Vmax / Specific activity / Specific activity relative to wild type: NADPH 2 mM; for Specific activity / Specific activity relative to wild type: against FZ
# Experimental: A kinetic study was carried out by monitoring the rate of FZ disappearance. FZ (4-256 μM) was incubated with purified NfsB proteins (10 μg) under the aerobic conditions described above for 2 h in the presence of NADPH at a fixed concentration of 2 mM.
# Data were analyzed and calculated via linear plot (13). The amounts of FZ were obtained via the standard nitroreductase assay of E. coli NfsB in the presence of a fixed concentration of cofactor NADPH (2 mM).
# [4] = test system: FZ-induced hypnosis; assay: Sleep-time (anti-FZ hypnosis) study in mice; format: in vivo, Balb/c mice; settings: for effect on sleep-time in treated mice (in words): FZ-treated Balb/c mice, FIG. 5A
# Experimental: Male Balb/c mice were purchased from the Animal Center, College of Medicine, National Taiwan University (NTUMC), and were housed in the air-conditioned animal quarters on a 12-h light/dark cycle (temperature 23-25° C.). The animals had free access to water and rodent laboratory chow (Purina Mills Inc.) with the experimental procedures being approved by the Institutional Care and Use Committee at NTUMC.
# A sleep-time study in mice was started at the age of seven weeks (body weight ranged from 17.6-19.2 g) following experimental procedures modified from previous studies.^23 Briefly, mice were divided into three groups (at least 4 mice per group) and injected i.p. with 2 mg/kg body weight of FZ from the stock solution (0.4 mg/ml in corn oil). One minute later, mice in Group I, Group II, and Group III were injected i.v. with a vehicle control, 1 mg/ml of wild-type NfsB enzyme (dissolved in 100 mM potassium phosphate buffer, pH 7.4), and 1 mg/ml of the N71S/F124W mutant enzymes (also dissolved in 100 mM potassium phosphate buffer, pH 7.4), respectively, via the tail lateral veins of the FZ-treated mice. The ability of the treated mice to stand on a stainless steel laboratory holder was examined at various time points. A mouse was characterized as losing the reflex ability if it could not stand on the holder for 10 seconds; A mouse was defined as having regained the reflex ability if it could stand on the holder for at least 10 seconds. The time between losing and regaining the reflex ability was defined as sleep-time and recorded for each group.
# [5] = NfsB in mice serum by direct competitive ELISA; settings: 24 hours after the injection
# Experimental: The ELISA assay used in this study was a modified version of a previously described method.^24 Briefly, 96-well microtitre plates were coated with 100 μL of anti-NfsB antibody solution (4 μg/ml in PBS; 13) overnight at 4° C., then washed with PBS containing 0.05% Tween 20 (PBST) in triplicate, then incubated with a blocking buffer containing PBST and 1% BSA. NfsB standards (containing 40 μl sera of untreated mice), or samples (containing 40 μl sera from treated mice collected 1, 3, 6, 12, and 24 hours after the treatment) were placed in the above-noted blocking buffer (60 μL) and added to the wells, which were incubated overnight at 4° C. Enzyme tracer solution (100 μl 6×His mAb/HRP, 1:10,000 in PBS) were added to the wells and incubated at 37° C. for 30 min Subsequently, the wells were washed and TMB substrate solution was added (100 μl). After incubation for 15 min at room temperature, a sulfuric acid solution (2N, 50 μl) was added to stop color development. The absorbance was measured at 450 nm. […] NfsB concentration in the sera samples of the treated groups were calculated based on the standard curve.
molecule,measurement,setting,value
"CN1C(=O)CN=C(c2ccccc2F)c2cc([N+](=O)[O-])ccc21 [FZ, flunitrazepam]",inhibitory effect (zones of inhibition) on E. coli cells,[1],neither exhibited toxicity nor increased MTZ toxicity; also recorded: did not show any inhibitory effect
"Cc1ncc([N+](=O)[O-])n1CCO [Metronidazole, metronidazole]",inhibitory effect (zones of inhibition) on E. coli cells,[1],dose-dependent
"Wild type: Wild-type E. coli type I nitroreductase NfsB (NP-415110; SEQ ID NO:1), His-tagged recombinant protein (protein, His tag; E. coli) MDIISVALKRHSTKAFDASKKLTPEQAEQIKTLLQYSPSSTNSQPWHFIVASTEEGKARVAKSAAGNYVFNERKMLDASHVVVFCAKTAMDDVWLKLVVDQEDADGRFATPEAKAANDKGRKFFADMHRKDLHDDAEWMAKQVYLNVGNFLLGVAALGLDAVPIEGFDAAILDAEFGLKEKGYTSLVVVPVGHHSVEDFNATLPKSRLPQNITLTEV",7AFZ formation,[2]; aerobic,29.52 ± 6.6 ng
same,7AFZ formation,[2]; anaerobic,51.85 ± 2.19 ng
same,Km,[3],71.4 µM
same,Vmax,[3],1.89 µM/min
same,Specific activity,[3],82.9 nmol/min/mg protein
same,Specific activity relative to wild type,[3],1.0 fold
same,effect on sleep-time in treated mice (in words),[4],significantly reduced the sleep-time
same,enzyme remaining in the serum,[5],30%
F124W (protein) MDIISVALKRHSTKAFDASKKLTPEQAEQIKTLLQYSPSSTNSQPWHFIVASTEEGKARVAKSAAGNYVFNERKMLDASHVVVFCAKTAMDDVWLKLVVDQEDADGRFATPEAKAANDKGRKFWADMHRKDLHDDAEWMAKQVYLNVGNFLLGVAALGLDAVPIEGFDAAILDAEFGLKEKGYTSLVVVPVGHHSVEDFNATLPKSRLPQNITLTEV,7AFZ formation relative to wild-type enzyme,[2]; anaerobic,2.7 fold
same,production of 7AFZ compared to the wild-type enzyme (in words),[2],significantly increased
same,7AFZ formation,[2]; anaerobic,141.88 ± 5.28 ng
T41L (protein) MDIISVALKRHSTKAFDASKKLTPEQAEQIKTLLQYSPSSLNSQPWHFIVASTEEGKARVAKSAAGNYVFNERKMLDASHVVVFCAKTAMDDVWLKLVVDQEDADGRFATPEAKAANDKGRKFFADMHRKDLHDDAEWMAKQVYLNVGNFLLGVAALGLDAVPIEGFDAAILDAEFGLKEKGYTSLVVVPVGHHSVEDFNATLPKSRLPQNITLTEV,production of 7AFZ compared to the wild-type enzyme (in words),[2],significantly increased
N71S (protein) MDIISVALKRHSTKAFDASKKLTPEQAEQIKTLLQYSPSSTNSQPWHFIVASTEEGKARVAKSAAGNYVFSERKMLDASHVVVFCAKTAMDDVWLKLVVDQEDADGRFATPEAKAANDKGRKFFADMHRKDLHDDAEWMAKQVYLNVGNFLLGVAALGLDAVPIEGFDAAILDAEFGLKEKGYTSLVVVPVGHHSVEDFNATLPKSRLPQNITLTEV,7AFZ formation relative to wild-type enzyme,[2]; anaerobic,2.4 fold
same,production of 7AFZ compared to the wild-type enzyme (in words),[2],significantly increased
same,7AFZ formation,[2]; anaerobic,126 ± 2.06 ng
F124H (protein) MDIISVALKRHSTKAFDASKKLTPEQAEQIKTLLQYSPSSTNSQPWHFIVASTEEGKARVAKSAAGNYVFNERKMLDASHVVVFCAKTAMDDVWLKLVVDQEDADGRFATPEAKAANDKGRKFHADMHRKDLHDDAEWMAKQVYLNVGNFLLGVAALGLDAVPIEGFDAAILDAEFGLKEKGYTSLVVVPVGHHSVEDFNATLPKSRLPQNITLTEV,production of 7AFZ compared to the wild-type enzyme (in words),[2],significantly increased
S40G (protein) MDIISVALKRHSTKAFDASKKLTPEQAEQIKTLLQYSPSGTNSQPWHFIVASTEEGKARVAKSAAGNYVFNERKMLDASHVVVFCAKTAMDDVWLKLVVDQEDADGRFATPEAKAANDKGRKFFADMHRKDLHDDAEWMAKQVYLNVGNFLLGVAALGLDAVPIEGFDAAILDAEFGLKEKGYTSLVVVPVGHHSVEDFNATLPKSRLPQNITLTEV,production of 7AFZ compared to the wild-type enzyme (in words),[2],higher activity
F124Y (protein) MDIISVALKRHSTKAFDASKKLTPEQAEQIKTLLQYSPSSTNSQPWHFIVASTEEGKARVAKSAAGNYVFNERKMLDASHVVVFCAKTAMDDVWLKLVVDQEDADGRFATPEAKAANDKGRKFYADMHRKDLHDDAEWMAKQVYLNVGNFLLGVAALGLDAVPIEGFDAAILDAEFGLKEKGYTSLVVVPVGHHSVEDFNATLPKSRLPQNITLTEV,production of 7AFZ compared to the wild-type enzyme (in words),[2],higher activity
Y68G (protein) MDIISVALKRHSTKAFDASKKLTPEQAEQIKTLLQYSPSSTNSQPWHFIVASTEEGKARVAKSAAGNGVFNERKMLDASHVVVFCAKTAMDDVWLKLVVDQEDADGRFATPEAKAANDKGRKFFADMHRKDLHDDAEWMAKQVYLNVGNFLLGVAALGLDAVPIEGFDAAILDAEFGLKEKGYTSLVVVPVGHHSVEDFNATLPKSRLPQNITLTEV,production of 7AFZ compared to the wild-type enzyme (in words),[2],significantly increased
N71S/F124W: Double mutant N71S/F124W of E. coli type I nitroreductase NfsB (protein) MDIISVALKRHSTKAFDASKKLTPEQAEQIKTLLQYSPSSTNSQPWHFIVASTEEGKARVAKSAAGNYVFSERKMLDASHVVVFCAKTAMDDVWLKLVVDQEDADGRFATPEAKAANDKGRKFWADMHRKDLHDDAEWMAKQVYLNVGNFLLGVAALGLDAVPIEGFDAAILDAEFGLKEKGYTSLVVVPVGHHSVEDFNATLPKSRLPQNITLTEV,7AFZ formation relative to wild-type enzyme,[2]; aerobic,11.77 fold
same,7AFZ formation,[2]; aerobic,347.56 ± 16.59 ng
same,7AFZ formation relative to wild-type enzyme,[2]; anaerobic,5.6 fold
same,7AFZ formation,[2]; anaerobic,290.52 ± 18.38 ng
same,Km,[3],111 µM
same,Vmax,[3],3.13 µM/min
same,Vmax relative to wild-type enzyme,[3],1.7 fold
same,Specific activity,[3],195.5 nmol/min/mg protein
same,Specific activity relative to wild type,[3],2.4 fold
same,effect on sleep-time in treated mice (in words),[4],significantly reduced the sleep-time
same,decrease of sleeping time compared to the vehicle group,[4]; FZ-treated mice,50%
same,sleeping time,"[4]; FZ-treated mice, enzyme 1 mg/ml i.v. one minute after FZ",138 ± 22 min
F70H (protein) MDIISVALKRHSTKAFDASKKLTPEQAEQIKTLLQYSPSSTNSQPWHFIVASTEEGKARVAKSAAGNYVHNERKMLDASHVVVFCAKTAMDDVWLKLVVDQEDADGRFATPEAKAANDKGRKFFADMHRKDLHDDAEWMAKQVYLNVGNFLLGVAALGLDAVPIEGFDAAILDAEFGLKEKGYTSLVVVPVGHHSVEDFNATLPKSRLPQNITLTEV,production of 7AFZ compared to the wild-type enzyme (in words),[2],higher activity
F70Y (protein) MDIISVALKRHSTKAFDASKKLTPEQAEQIKTLLQYSPSSTNSQPWHFIVASTEEGKARVAKSAAGNYVYNERKMLDASHVVVFCAKTAMDDVWLKLVVDQEDADGRFATPEAKAANDKGRKFFADMHRKDLHDDAEWMAKQVYLNVGNFLLGVAALGLDAVPIEGFDAAILDAEFGLKEKGYTSLVVVPVGHHSVEDFNATLPKSRLPQNITLTEV,production of 7AFZ compared to the wild-type enzyme (in words),[2],higher activity
